Source: publication doi:10.1101/2020.04.28.064113 (bioRxiv, 2020)

Biological target: Ubiquitin (wild-type), 15N isotopically labelled (UniProt P0CG47 1-76)
Test: NMR titration

binding result: binds
Binder: CMQIFVKTLTGKTITLEVC (disulphide bridge between the two terminal cysteines) [stapled Cys-Ubq3-Cys peptide (stapled xenonucleus)]
